Molecular target: human megalin (human)
Assay: SPR

Sequence of human megalin (human) (O00711 whole entry): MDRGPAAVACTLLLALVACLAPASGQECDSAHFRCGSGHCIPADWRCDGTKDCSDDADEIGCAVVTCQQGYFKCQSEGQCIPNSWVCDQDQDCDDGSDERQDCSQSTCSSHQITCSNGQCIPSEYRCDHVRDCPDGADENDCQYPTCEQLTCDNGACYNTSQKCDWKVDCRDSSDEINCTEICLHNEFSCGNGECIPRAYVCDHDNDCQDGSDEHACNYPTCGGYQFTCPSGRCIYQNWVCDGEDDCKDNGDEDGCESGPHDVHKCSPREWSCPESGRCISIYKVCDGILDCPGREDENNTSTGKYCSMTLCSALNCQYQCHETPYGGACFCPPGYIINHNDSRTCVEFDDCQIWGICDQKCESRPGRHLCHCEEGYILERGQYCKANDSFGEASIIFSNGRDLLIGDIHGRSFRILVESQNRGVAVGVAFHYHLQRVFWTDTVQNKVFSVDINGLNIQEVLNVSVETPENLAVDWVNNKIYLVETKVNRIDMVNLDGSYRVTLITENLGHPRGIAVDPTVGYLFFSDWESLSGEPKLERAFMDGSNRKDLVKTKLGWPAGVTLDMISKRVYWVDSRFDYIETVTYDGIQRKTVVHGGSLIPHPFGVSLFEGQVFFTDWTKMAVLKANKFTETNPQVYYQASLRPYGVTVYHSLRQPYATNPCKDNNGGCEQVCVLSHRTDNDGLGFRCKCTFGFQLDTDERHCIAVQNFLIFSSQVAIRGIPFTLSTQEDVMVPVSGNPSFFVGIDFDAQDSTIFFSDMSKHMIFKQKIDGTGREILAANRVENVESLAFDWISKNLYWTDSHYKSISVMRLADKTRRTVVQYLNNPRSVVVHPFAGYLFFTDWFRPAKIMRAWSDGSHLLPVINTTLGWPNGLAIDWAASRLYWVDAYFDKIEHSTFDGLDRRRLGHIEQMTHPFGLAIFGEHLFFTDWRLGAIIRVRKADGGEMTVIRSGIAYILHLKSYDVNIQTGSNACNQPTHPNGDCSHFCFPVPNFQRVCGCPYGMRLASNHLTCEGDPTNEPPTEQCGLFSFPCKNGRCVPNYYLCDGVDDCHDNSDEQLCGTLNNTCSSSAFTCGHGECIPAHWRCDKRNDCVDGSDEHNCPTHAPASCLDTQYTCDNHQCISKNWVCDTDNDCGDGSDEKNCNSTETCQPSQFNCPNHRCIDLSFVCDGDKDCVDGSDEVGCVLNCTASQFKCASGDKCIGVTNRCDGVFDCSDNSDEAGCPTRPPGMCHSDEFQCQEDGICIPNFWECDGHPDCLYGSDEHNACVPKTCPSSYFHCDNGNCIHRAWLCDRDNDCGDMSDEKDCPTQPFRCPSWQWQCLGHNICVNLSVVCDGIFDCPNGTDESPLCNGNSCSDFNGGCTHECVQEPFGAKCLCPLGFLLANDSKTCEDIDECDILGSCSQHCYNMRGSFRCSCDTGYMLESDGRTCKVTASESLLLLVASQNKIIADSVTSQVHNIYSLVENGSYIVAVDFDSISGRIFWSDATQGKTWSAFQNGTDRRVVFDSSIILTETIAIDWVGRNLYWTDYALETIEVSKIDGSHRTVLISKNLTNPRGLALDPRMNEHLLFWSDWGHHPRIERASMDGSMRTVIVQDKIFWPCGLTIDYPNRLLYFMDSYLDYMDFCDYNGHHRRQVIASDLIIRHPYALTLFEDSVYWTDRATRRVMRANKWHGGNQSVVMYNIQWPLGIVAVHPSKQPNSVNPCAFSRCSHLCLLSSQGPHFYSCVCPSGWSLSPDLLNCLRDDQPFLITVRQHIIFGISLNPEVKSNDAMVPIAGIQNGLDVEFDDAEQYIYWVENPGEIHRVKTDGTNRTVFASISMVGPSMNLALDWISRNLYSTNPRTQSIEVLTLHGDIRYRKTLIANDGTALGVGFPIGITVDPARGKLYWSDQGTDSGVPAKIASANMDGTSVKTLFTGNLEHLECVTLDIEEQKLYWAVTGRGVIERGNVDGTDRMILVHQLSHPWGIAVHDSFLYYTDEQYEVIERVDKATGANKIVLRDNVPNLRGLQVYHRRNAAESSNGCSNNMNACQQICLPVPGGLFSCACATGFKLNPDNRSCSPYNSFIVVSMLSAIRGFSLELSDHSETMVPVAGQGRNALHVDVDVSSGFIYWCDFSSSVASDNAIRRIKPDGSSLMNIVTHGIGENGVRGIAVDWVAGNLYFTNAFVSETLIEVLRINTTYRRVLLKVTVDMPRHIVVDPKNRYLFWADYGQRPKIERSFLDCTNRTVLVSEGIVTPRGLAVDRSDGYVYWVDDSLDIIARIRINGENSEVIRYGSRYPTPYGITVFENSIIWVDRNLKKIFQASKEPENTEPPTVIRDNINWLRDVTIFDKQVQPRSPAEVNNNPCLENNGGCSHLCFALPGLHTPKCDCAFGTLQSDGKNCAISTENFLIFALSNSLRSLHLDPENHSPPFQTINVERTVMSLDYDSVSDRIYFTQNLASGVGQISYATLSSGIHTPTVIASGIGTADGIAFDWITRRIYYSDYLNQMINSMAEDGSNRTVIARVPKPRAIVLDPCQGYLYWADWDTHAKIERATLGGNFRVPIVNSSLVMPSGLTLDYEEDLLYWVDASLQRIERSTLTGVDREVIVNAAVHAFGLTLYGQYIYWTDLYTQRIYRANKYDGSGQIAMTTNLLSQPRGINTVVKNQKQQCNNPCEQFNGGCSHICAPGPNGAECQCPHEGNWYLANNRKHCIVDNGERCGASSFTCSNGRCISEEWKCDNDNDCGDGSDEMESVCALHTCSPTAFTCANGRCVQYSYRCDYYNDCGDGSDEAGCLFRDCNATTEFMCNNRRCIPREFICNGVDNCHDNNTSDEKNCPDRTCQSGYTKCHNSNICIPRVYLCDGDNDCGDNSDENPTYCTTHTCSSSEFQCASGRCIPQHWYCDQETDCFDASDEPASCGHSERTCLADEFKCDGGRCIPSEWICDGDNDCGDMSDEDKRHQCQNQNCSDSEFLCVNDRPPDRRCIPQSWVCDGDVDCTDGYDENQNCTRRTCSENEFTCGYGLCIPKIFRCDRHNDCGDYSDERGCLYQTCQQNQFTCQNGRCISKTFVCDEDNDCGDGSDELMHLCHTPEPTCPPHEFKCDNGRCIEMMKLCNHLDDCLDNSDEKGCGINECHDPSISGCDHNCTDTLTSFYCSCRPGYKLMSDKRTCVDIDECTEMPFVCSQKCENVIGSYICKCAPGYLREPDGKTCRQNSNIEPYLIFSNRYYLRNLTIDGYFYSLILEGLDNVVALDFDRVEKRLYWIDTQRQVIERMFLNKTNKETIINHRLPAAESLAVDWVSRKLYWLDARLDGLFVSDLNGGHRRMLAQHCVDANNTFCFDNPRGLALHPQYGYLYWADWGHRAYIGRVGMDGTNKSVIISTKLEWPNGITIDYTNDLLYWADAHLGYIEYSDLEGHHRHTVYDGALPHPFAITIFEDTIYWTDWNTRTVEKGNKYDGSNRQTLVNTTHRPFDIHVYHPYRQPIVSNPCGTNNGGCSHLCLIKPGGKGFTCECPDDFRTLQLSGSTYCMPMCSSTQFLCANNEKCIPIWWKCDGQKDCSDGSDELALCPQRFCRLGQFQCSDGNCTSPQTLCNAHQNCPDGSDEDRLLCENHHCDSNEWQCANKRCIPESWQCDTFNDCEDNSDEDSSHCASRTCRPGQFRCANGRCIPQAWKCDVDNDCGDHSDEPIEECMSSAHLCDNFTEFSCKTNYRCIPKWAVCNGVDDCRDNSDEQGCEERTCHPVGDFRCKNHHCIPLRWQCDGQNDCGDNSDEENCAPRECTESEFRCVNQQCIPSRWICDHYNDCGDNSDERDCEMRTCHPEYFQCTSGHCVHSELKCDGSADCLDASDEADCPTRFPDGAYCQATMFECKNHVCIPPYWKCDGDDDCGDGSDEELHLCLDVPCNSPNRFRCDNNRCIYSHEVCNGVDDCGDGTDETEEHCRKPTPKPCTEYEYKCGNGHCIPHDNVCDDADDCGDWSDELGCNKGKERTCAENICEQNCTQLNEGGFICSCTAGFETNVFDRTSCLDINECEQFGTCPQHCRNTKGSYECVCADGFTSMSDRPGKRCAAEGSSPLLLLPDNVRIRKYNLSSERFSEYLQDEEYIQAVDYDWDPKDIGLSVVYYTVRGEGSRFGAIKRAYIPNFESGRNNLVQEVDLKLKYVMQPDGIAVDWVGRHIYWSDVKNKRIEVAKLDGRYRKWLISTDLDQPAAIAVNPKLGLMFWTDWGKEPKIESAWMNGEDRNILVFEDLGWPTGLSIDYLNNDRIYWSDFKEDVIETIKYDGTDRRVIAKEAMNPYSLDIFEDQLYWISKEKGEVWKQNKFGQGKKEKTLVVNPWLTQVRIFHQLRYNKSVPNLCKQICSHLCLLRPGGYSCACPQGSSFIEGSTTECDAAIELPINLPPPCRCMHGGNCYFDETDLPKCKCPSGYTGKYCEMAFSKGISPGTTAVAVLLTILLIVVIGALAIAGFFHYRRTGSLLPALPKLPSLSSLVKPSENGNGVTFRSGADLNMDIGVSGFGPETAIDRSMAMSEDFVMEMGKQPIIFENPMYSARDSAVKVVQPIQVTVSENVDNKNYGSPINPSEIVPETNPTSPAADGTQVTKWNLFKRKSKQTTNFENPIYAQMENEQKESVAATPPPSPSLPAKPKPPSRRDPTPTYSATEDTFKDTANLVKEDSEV

Kd: ~60 nM
B1: WT human NGAL (ligand-free) (protein)
chain: QDSTSDLIPAPPLSKVPLQQNFQDNQFQGKWYVVGLAGNAILREDKDPQKMYATIYELKEDKSYNVTSVLFRKKKCDYWIRTFVPGCQPGEFTLGNIKSYPGLTSYLVRVVSTNYNQHAMVFFKKVSQNREYFKITLYGRTKELTSELKENFIRFSKSLGLPENHIVFPVPIDQCIDG

From patent US12746270 (dated 2026)
